In patent US20120277143A1 (Janssen / Centocor, published 2012):

Tests used:
human IL4 [1] = target: T1, human IL4 (human, UniProt P05112 25-153, biotinylated in the SPR and competition assays (sites not given)); experiment: cell-based or functional assay
T1 sequence: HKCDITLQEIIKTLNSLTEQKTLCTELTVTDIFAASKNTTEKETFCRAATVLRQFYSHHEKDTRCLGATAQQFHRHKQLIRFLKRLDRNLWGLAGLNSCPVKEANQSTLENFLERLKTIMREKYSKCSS

human IL4 [2] = target: T1, human IL4; experiment: Luminex competition, 67 pM biotin-IL4 binding to IL4RA-Fc beads
Protocol: For biotinylation of IL4, recombinant human IL4 (Peprotech) was biotinylated at a 4:1 ratio using EZ-Link NHS-LC-Biotin (Pierce, #21336) for 2 hours at RT. The protein was dialyzed in PBS overnight to remove excess biotinylation reagent. Competition binding for cynomologous IL4 (SEQ ID NO: 5) was performed using the isolated protein biotinylated in the same manner.
AR protein inhibition of IL4 binding to IL4 RA was assessed using IL4 RA-Fc (R&D Systems), comprising the Gly24-His232 which represents the ECD (SEQ ID NO: 5) fused to a human IgGl-Fc and therefor a disulfide linked homodimer. The protein was conjugated to carboxylated Luminex microspheres according to the manufacturer's protocol. For neutralization experiments, 5000 IL4RA-Fc conjugated beads in 50 μl were added to each well of a 96-well filter plate (Millipore). Biotinylated human IL4 was mixed with an appropriate dilution of AR protein in Luminex Assay Buffer (PBS, 1% BSA, pH 7.4) to give a final concentration of 67 pM IL4. The plate was incubated for 1 hour at RT in the dark on a plate shaker, set to shake vigorously to avoid bead aggregation. The plate was washed twice with 150 μl of wash buffer (PBS, 0.1% BSA, pH 7.4, 0.05% Tween-20) using a vacuum manifold followed by the addition of 50 μl of Streptavidin PE at 25 μg/ml and incubated at RT for 20 minutes. The plates were washed again and 150 μl of sheath fluid was added and the plate was placed on the shaker for 5 minute. Plates were read using a Luminex® 100 system; data were plotted as a function of AR protein concentration. IC₅₀ values were determined by fitting the data to the equation for sigmoidal dose response using PRISM software (GraphPAD PRISM) (Table 6).

human IL4 [3] = target: T1, human IL4; experiment: cell-based or functional assay; remark: listed apart in the source
human IL4 [4] = target: T1, human IL4; experiment: SPR ProteOn, biotin-IL4 on neutravidin chip, 1:1 fit
Protocol: Purified binders selected as “hits” were ranked by their affinity on a ProteOn XPR-36 instrument (Bio-Rad). ProteOn is an optical biosensor instrument that measures protein-protein interactions in real time, based on Surface Plasmon Resonance technology similar to Biacore (GE). A rapid experimental protocol was performed as follows: On a GLC sensor chip (Bio-Rad), Neutravidin (Thermo Scientific) was covalently immobilized to a density of >5000 RU using amine coupling chemistry as described by the manufacturer. On one flow cell, biotinylated IL4 (Peprotech) was immobilized to a level of 250 RU, while another flow cell was used as reference, with neutravidin immobilized only. […] The retrieved values were used to rank the AR proteins by their affinity.

murine IL13 = target: T2, murine IL13 (mouse, UniProt P20109 21-131, limits assumed); experiment: cell-based or functional assay
T2 sequence (looked up): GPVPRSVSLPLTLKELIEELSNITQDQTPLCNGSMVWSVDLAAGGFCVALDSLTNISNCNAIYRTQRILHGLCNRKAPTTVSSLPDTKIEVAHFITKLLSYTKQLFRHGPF

murine IL4 [5] = target: T3, murine IL4 (mouse, UniProt P07750 21-140); experiment: cell-based or functional assay
T3 sequence (looked up): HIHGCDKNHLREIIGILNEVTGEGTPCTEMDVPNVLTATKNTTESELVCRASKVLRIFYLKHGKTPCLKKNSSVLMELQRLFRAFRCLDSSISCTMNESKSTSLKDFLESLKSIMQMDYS

human IL4 [6] = target: T1, human IL4; experiment: cell-based or functional assay; remark: listed apart in the source
human IL4 [7] = target: T1, human IL4; experiment: binding to recombinant IL4; kinetic method not restated
murine IL4 [8] = target: T3, murine IL4; experiment: affinity for mIL4, method and numbers not given

B1: C06_28E5 (designed binder)
chain: DLGKKLLEAARAGQDDEVRILMANGADVNAADDSGITPLHLAAEDGHLEIVEVLLKYGADVNAQDNLGDTPLHLAAWTGHLEIVEVLLKNGADVNAYDISGITPLHLAAFYGHLEIVEVLLKHGADVNAQDKFGKTAFDISIDNGNEDLAEILQKLN
notes: ankyrin repeat protein; His-tagged, IMAC-purified; also called benchmark AR protein
Human IL4 [1]
  inhibition of STAT6 (HEK-STAT6 cells), IC50: 0.003 nM
Human IL4 [2]
  IC50: 0.0102 nM
Human IL4 [3]
  A549 TARC Inhibition IC50: 0.174 nM
  HEK Stat6 Inhibition IC50: 0.0014 nM
  Type 1 Complex inhibition IC50: 0.0015 nM
Human IL4 [4]
  Kd: 0.05 nM
  koff: 4.61e-05 s⁻¹
  kon: 922000 M⁻¹ s⁻¹

B2: 11G11-21H2 (designed binder)
chain: MRGSHHHHHHGSDLGKKLMEAARAGQDDEVRILMANGADVNAKDLFGITPLHLAAVYGHLEIVEVLLKHGADVNATDNWGSTPLHLAAQFGHLEIVEVLLKYGADVNAQDKFGKTAFDISIDNGNEDLAEILQKLGGGGSGGGGSGGGGSGGGGSRSDLGEKLLEAARAGQDDEVRILMANGADVNAYDDDGMTPLHLAAKSGHLEIVEVLLKHGADVNAMDITGSAPLHLAADLGHLEIVEVLLKHGADVNAIDYLGATPLHLAATYGHPEIVEVLLKYGADVNAQDKFGKTAFDISIDNGNEDLAEILQKLN
Murine IL13
  IC50 (read off the curve); IL13 STAT6 activation assay, aerosolized sample (triangles): ~2 nM
  IC50 (read off the curve); IL13 STAT6 activation assay, pre-nebulization sample (squares): ~1 nM
  IC50 (read off the curve); IL13 STAT6 activation assay, retentate sample (diamonds): ~1 nM
Murine IL4 [5]
  IC50 (read off the curve); IL4 dependent HT2 proliferation assay, retentate sample (diamonds, solid line): ~0.04 nM

B3: C06_44C12v2 (designed binder)
chain: DLGKKLLEAASAGQDDEVHILMANGADVNALDDSGYTPLHLAAEDGHLEIVEVLLKHGADVNAADRLGDTPLHLAAFVGHLEIVEVLLKAGADVNAVDLAGVTPLHVAAFYGHLEIVEVLLKAGADVNAQDKFGKTAFDISIDNGNEDLAEILQKLN
Human IL4 [6]
  IC50 STAT6: 0.0069 nM
Human IL4 [7]
  Kd: 0.0016 nM

B4: C06-21H2 (designed binder)
chain: DLGEKLLEAARAGQDDEVRILMANGADVNAYDDDGMTPLHLAAKSGHLEIVEVLLKHGADVNAMDITGSAPLHLAADLGHLEIVEVLLKHGADVNAIDYLGATPLHLAATYGHPEIVEVLLKYGADVNAQDKFGKTAFDISIDNGNEDLAEILQKLN
Murine IL4 [8]
  binding result: binds
